Experimental data published in US20170101470A1 (PROTHENA BIOSCIENCES, published 2017).
Residue numbers refer to the chain shown, from its start. Names may count otherwise.

How the values were obtained:
[1] = target: T1, human MCAM expressed on CHO cells (full length human MCAM gene) (human, UniProt P43121 24-646); experiment: flow cytometry: blocking of recombinant human laminin 411 (20 ug/ml) binding to CHO cells expressing human MCAM
T1 construct: also called hMCAM expressing CHO cells; CD146
T1 chain: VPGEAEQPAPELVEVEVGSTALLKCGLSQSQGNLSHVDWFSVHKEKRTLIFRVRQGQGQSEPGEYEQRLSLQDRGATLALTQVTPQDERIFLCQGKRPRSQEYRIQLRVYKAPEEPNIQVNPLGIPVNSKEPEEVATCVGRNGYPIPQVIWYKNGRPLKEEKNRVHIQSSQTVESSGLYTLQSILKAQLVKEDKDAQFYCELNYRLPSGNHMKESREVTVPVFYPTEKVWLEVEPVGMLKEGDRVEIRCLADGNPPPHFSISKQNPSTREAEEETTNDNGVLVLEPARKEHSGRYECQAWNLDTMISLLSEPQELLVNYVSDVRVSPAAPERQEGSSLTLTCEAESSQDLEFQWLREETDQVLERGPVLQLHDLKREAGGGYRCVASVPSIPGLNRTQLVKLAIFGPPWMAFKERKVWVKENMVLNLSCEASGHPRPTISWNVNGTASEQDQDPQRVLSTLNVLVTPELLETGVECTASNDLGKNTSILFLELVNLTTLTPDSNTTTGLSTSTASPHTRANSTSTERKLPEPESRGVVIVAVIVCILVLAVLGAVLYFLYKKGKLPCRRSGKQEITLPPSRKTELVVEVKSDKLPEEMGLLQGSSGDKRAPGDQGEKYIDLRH
Description: The 87 independent mouse fusion clones and 26 independent rat fusion clones described in Example 1 above as being capable of (i) binding to human MCAM, and (ii) blocking the interaction between human MCAM and the α-4 chain of laminin were further characterized as follows. First, IC50 quantitation for the ability of the monoclonal antibody to block the binding of human MCAM to the α-4 chain of laminin was determined as follows. CHO cells expressing human MCAM were incubated with an anti-human MCAM antibody (at various concentrations) for 30 minutes at 4 degrees Celsius. […] Unbound laminin was then washed away, and the laminin bound to the surface of the cells was detected with fluorescently labeled anti-laminin antibodies. After washing, the amount of laminin bound to the surface was detected by flow cytometry, and IC50s were calculated based on the mean fluorescent intensity.
Amino acid and nucleic acid sequences of the heavy and light chains of these antibodies, and their hypervariable regions, are provided in SEQ ID NOs:29-92. […] As such, each of these specific monoclonal antibodies was very capable of binding to human MCAM and inhibiting the interaction of cell-expressed human MCAM with its α-4 laminin binding ligand.

[2] = target: T2, human MCAM domain 3 hFc construct (human, UniProt P43121 244-321); experiment: ForteBio Octet Red, MCAMhFc domains on anti-human IgG Fc sensors, antibody at 5 ug/ml
T2 construct: One of the 'various MCAMhFc domains' loaded on the ForteBio sensors; also called MCAMhFc domain 3
T2 sequence: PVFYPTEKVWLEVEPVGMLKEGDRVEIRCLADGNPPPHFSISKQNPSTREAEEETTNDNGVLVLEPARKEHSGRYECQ
Excerpt: (§1) The following protocol was used: ForteBio anti-human IgG Fc biosensors were used to immobilize various MCAMhFc domains including full length MCAMhFc protein on to biosensor surface. […] After loading these samples into a black 96 well plate, the Octet Red was programmed as follows: 60 seconds for baseline #1; 180 seconds for loading various domains; 60 seconds for baseline #2; 180 seconds for association of antibody to domain; and 240 seconds for dissociation of antibody from domain.
(§2) Reagents and Supplies Used: [0358] 1. MCAMhFc final concentration @ 5 ug/ml [0359] […] 3. ForteBio anti-human IgG Fc Capture (AHC) biosensors for kinetics experiments, cat#18-5060 [0361] 4. Block 96 well plate from Greiner Bio-one, cat#655209 [0362] 5. ForteBio Octet Red machine [0363] 6. Fresh tissue culture medium, DMEM with 20% FCS, was used as buffer for dilution

[3] = target: T3, human MCAM domains 1 and 2 hFc construct (human, UniProt P43121 19-242); experiment: ForteBio Octet Red, MCAMhFc domains on anti-human IgG Fc sensors
T3 construct: One of the 'various MCAMhFc domains' loaded on the ForteBio sensors
T3 sequence: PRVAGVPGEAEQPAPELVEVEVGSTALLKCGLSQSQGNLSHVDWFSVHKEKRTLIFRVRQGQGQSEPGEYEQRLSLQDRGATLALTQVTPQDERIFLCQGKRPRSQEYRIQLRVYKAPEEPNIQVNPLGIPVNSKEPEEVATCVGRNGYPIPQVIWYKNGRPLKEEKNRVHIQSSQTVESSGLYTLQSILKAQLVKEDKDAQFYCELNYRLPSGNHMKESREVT
Excerpt: as §1, §2

[4] = target: T4, human MCAM domain 2 hFc construct (human, UniProt P43121 139-242); experiment: as above
T4 construct: One of the 'various MCAMhFc domains' loaded on the ForteBio sensors; also called MCAMhFc domain 2
T4 sequence: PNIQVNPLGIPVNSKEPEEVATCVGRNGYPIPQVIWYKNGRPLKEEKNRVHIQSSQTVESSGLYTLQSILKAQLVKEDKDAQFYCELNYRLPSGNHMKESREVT
Excerpt: as §1, §2

[5] = target: T5, human MCAM domain 1 hFc construct (human, UniProt P43121 19-129); experiment: as above
T5 construct: One of the 'various MCAMhFc domains' loaded on the ForteBio sensors; also called MCAMhFc domain 1
T5 sequence: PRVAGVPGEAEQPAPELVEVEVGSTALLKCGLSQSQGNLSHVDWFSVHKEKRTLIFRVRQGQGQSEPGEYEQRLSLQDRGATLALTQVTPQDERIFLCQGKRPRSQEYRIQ
Excerpt: as §1, §2

[6] = target: T6, human MCAM-Fc protein (extracellular domain of human MCAM fused to human IgG) (human, UniProt P43121 24-559); experiment: summary sentence of Example 3 (ForteBio, MCAMhFc)
T6 construct: also called hMCAM-Fc; MCAMhFc
T6 chain: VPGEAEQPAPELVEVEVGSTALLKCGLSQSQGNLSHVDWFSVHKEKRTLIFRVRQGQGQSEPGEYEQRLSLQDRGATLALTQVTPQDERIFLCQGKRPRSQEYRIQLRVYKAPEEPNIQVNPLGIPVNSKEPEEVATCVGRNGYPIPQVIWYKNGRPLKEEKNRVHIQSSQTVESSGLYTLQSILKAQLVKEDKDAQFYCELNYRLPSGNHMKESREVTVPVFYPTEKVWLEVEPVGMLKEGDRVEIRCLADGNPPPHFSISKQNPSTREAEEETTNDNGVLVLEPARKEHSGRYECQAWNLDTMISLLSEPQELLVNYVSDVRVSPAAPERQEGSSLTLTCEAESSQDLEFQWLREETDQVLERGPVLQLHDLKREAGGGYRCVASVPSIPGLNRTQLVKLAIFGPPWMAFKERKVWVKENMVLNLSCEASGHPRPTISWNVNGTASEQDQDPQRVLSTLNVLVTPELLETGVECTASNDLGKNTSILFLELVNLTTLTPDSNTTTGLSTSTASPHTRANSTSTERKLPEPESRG
Excerpt: as §1, §2

recombinant hMCAM-His [7] = target: T7, recombinant hMCAM-His (human, UniProt P43121 24-559); experiment: competitive ELISA on coated hMCAM-His, competitor biotinylated rodent or chimeric 2120; IC50 relative to rodent 2120, Expt. #1
T7 chain: T6 chain
Description: (§3) The apparent affinities of the humanized antibodies were compared to the parental rodent or chimeric antibody in a competitive ELISA according to the following protocol: ELISA plates were coated with recombinant hMCAM-His, and blocked with casein buffer to prevent non-specific binding. Biotinylated rodent or chimeric antibody was added at a subsaturating concentration, in the presence or absence of 3× increasing concentrations of unlabeled competitor (humanized antibody, rodent, or chimeric). After washing to remove unbound antibody, streptavidin HRP was added to allow detection of the biotinylated antibody. The ELISA was developed with TMB substrate and the OD450 was measured. The IC50 of the unlabeled competitor was determined using the GraphPad Prism5 software.

recombinant hMCAM-His [8] = target: T7, recombinant hMCAM-His; experiment: ForteBio Octet Red, antibody on anti-human Fc sensors, hMCAMHis analyte, 1:1 fit; affinity relative to rodent 2120, Expt. #1
Description: (§4) The affinities were measured using the ForteBio Octet Red. Anti-human Fc sensors were used to capture the humanized antibodies, and several concentrations of hMCAMHis analyte were used to determine the affinity using a 1:1 fitting model.

recombinant hMCAM-His [9] = target: T7, recombinant hMCAM-His; experiment: ForteBio Octet Red, antibody on anti-human Fc sensors, hMCAMHis analyte, 1:1 fit; affinity relative to rodent 2120, Expt. #2
Description: as §4

recombinant hMCAM-His [10] = target: T7, recombinant hMCAM-His; experiment: competitive ELISA on coated hMCAM-His, competitor biotinylated rodent or chimeric 2120; IC50 relative to rodent 2120, Expt. #2
Description: as §3

laminin α-4 = laminin α-4 (UniProt Q16363 25-1823); experiment: FACS on MCAM mutants displayed on mammalian cells
laminin α-4, sequence (Q16363 25-1823): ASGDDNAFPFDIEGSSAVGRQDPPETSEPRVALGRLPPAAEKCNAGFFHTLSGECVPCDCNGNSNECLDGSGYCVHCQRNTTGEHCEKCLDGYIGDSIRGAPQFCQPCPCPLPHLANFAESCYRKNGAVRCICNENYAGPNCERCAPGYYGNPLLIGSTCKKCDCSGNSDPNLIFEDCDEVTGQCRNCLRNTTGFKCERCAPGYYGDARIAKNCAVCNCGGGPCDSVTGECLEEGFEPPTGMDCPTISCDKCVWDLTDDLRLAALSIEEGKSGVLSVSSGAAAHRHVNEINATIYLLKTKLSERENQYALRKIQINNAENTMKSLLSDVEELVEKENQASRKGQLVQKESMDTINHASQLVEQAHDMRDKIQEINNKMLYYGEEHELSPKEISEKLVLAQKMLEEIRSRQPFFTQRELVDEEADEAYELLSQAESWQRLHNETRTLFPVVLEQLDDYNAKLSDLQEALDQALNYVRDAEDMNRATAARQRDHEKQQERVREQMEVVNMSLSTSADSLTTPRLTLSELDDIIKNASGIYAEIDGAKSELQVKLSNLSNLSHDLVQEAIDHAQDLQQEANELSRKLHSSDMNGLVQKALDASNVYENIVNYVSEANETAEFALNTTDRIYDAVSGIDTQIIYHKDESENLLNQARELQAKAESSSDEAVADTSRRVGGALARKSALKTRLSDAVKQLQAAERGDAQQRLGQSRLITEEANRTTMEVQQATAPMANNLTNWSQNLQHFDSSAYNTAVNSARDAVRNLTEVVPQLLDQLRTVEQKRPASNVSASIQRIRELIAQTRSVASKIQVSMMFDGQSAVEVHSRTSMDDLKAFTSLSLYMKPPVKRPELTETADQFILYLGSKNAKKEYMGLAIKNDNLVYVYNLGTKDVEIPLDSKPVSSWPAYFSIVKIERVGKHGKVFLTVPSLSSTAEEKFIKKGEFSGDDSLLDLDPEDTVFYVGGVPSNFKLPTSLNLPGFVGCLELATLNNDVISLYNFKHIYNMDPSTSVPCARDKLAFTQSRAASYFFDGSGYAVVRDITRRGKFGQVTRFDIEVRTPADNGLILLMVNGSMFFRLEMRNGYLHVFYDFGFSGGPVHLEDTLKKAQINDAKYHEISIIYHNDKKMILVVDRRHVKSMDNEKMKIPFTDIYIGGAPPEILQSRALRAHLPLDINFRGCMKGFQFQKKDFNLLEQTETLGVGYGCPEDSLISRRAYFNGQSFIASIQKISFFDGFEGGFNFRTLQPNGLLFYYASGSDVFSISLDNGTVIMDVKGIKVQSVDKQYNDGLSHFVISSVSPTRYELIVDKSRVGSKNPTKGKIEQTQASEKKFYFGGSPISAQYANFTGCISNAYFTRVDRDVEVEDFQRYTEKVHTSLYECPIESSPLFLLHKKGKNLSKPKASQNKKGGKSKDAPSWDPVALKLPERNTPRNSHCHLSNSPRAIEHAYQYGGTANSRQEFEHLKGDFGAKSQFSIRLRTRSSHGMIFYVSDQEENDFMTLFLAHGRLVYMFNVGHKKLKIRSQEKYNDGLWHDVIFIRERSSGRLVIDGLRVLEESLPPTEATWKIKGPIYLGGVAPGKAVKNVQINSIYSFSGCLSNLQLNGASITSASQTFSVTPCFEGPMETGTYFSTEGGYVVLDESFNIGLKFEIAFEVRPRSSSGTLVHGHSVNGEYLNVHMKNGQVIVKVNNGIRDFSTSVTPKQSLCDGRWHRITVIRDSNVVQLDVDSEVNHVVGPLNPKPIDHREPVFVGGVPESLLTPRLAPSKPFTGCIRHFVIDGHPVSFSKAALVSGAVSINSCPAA

B1: mouse anti-human MCAM monoclonal antibody clone 1415.1.1 (antibody, V domains shown)
VH: QVQLQQPGAELVQPGAPVKLSCKASGYIFTSYWMNWVKQRPGRGLEWIGRIDPSDSKIHYNQKFKDKATLTVDRSSSTAYIQLGSLTSEDSAVYYCAKEGGLRRGDYAMDYWGQGTSVTVSS
VL: DIVMTQSPATLSVTPGDRVSLSCRASQSISDYLHWYQQKSHESPRLLIKYASQSISGIPSRFSGSGSGSDFTLSINSVEPEDVGVYYCQNGHNFPRTFGGGTKLEIK
notes: Mouse hybridoma antibody
**Q.** How did the IC50 [1] turn out when B1 was run?
**A.** The IC50 was 0.307 µg/mL.

**Q.** Does B1 bind [2]?
**A.** Result: binds

**Q.** Does B1 bind [3]?
**A.** Result: no binding (tested: 5 ug/ml)

**Q.** Does B1 bind [4]?
**A.** Result: no binding (tested: 5 ug/ml)

**Q.** Does B1 bind [5]?
**A.** Result: no binding (tested: 5 ug/ml)

**Q.** Does B1 bind [6]?
**A.** Result: binds

B2: humanized anti-MCAM antibody h2120_VH2 + h2120_VL3 (antibody, V domains shown)
VH: QVTLKESGPVLVKPTETLTLTCTVSGFSLTSNGVSWVRQPPGKALEWIAAISSGGTTYYNSAFKSRLSISRDTSKSQVVLTMTNMDPVDTATYYCARRYGYGWYFDFWGQGTLVTVSS
VL: DIQMTQSPSSLSASVGDRVTINCKASQNIYNSLAWYQQKPGKAPKVLIFNANSLQTGIPSRFSGSGSGTDFTLTISSLQPEDFATYYCQQFYSGYTFGQGTKLEIK
notes: Human IgG1 / human kappa; also called h2120VH2VL3; Conservative VH + conservative VL
**Q.** B2 was tested. Which “Fold over rodent (ELISA)” value (recombinant hMCAM-His [7]) did it give?
**A.** Its value is 1.93 fold.

**Q.** And the “Fold over rodent (Forte)” value (recombinant hMCAM-His [8])?
**A.** Its value is 6.57 fold.

**Q.** What about the “Fold over rodent (Forte)” value (recombinant hMCAM-His [9]) of the same binder?
**A.** The value was 6.43 fold.

**Q.** What about the “Fold over rodent (ELISA)” value (recombinant hMCAM-His [10]) of the same binder?
**A.** Its value is 2.62 fold.

B3: humanized anti-MCAM antibody h2120_VH3 + h2120_VL3 (antibody, V domains shown)
VH: B2 VH with N32S, S68T
VL: B2 VL
notes: Human IgG1 / human kappa; also called h2120VH3VL3; N-S deamidate VH + conservative VL
**Q.** What does the source list for B3?
**A.** Fold over rodent (ELISA) (recombinant hMCAM-His [7]): 3.47 fold; Fold over rodent (Forte) (recombinant hMCAM-His [8]): 16.1 fold

B4: human MCAM I141A mutant displayed on mammalian cells (Example 5) (receptor)
chain: T1 chain with I118A
notes: construct and any tag not described
**Q.** Does B4 bind (laminin α-4)?
**A.** Result: no binding

B5: human MCAM D216A mutant displayed on mammalian cells (Example 5) (receptor)
chain: T1 chain with D193A
notes: as for B4
**Q.** Does B5 bind (laminin α-4)?
**A.** Result: no binding

B6: human MCAM Y318A mutant displayed on mammalian cells (Example 5) (receptor)
chain: T1 chain with Y295A
notes: as for B4
**Q.** Does B6 bind (laminin α-4)?
**A.** Result: no binding

B7: mouse anti-human MCAM monoclonal antibody clone 1749.1.3 (antibody, V domains shown)
VH: DVKLVESGGDLVKPGGSLKLSCAASGFTFSSYIMSWVRQTPEKRLEWVATISSGGSSTYYPDSVKGRFTISRDNAKNTLYLQMSSLKSEDTAMYYCTRDDDYDVKVFAYWGQGTLVTVSA
VL: DIVMSQSPSSLAVSAGEKVTMNCKSSRSLLNSRIRKNYLAWYQQKPGQSPKLLIYWASTRESGVPDRFTGSGSGTDFTLTISSVQAEDLAVYYCKQSYNLLTFGAGTKLELK
notes: Mouse hybridoma antibody
**Q.** Which IC50 [1] does the source give for B7 here?
**A.** The IC50 was 0.545 µg/mL.

**Q.** Does B7 bind [2]?
**A.** Result: binds

**Q.** Does B7 bind [3]?
**A.** Result: no binding (tested: 5 ug/ml)

**Q.** Does B7 bind [4]?
**A.** Result: no binding (tested: 5 ug/ml)

**Q.** Does B7 bind [5]?
**A.** Result: no binding (tested: 5 ug/ml)

**Q.** Does B7 bind [6]?
**A.** Result: binds
